How the values were obtained:
Experiment in all cases: cell-based or functional assay
[1] = biological target: HIV-1 APV-6 envelope protein (Env) on pseudovirus (HIV-1)
[2] = biological target: HIV-1 92RW024 envelope glycoprotein (Env) on pseudovirus (HIV-1)
[3] = biological target: HIV-1 MGRM-F1-010 Env (pseudovirus) (HIV-1)
[4] = biological target: HIV-1 Env of isolate MGRM-G-019 (subtype G) (HIV-1)
[5] = biological target: HIV-1 94UG103 envelope glycoprotein (Env) on pseudovirus (HIV-1)
[6] = biological target: HIV-1 Env of isolate MGRM-G-017 (subtype G) (HIV-1)
[7] = biological target: HIV-1 Env of isolate MGRM-D-028 (clade D) (HIV-1)
[8] = biological target: HIV-1 Env of isolate 94UG103 (HIV-1)
[9] = biological target: HIV-1 Env of isolate 92UG024 (HIV-1)
[10] = biological target: HIV-1 92RW026 envelope glycoprotein (Env) (HIV-1)
[11] = biological target: HIV-1 MGRM-C-026 envelope glycoprotein (Env) on pseudovirus (HIV-1)
[12] = biological target: HIV-1 MGRM-C-024 Env (HIV-1)
[13] = biological target: HIV-1 93MW959 envelope glycoprotein (Env) on pseudovirus (HIV-1)
[14] = biological target: HIV-1 Env of isolate MGRM-G-001 (subtype G) (HIV-1)
[15] = biological target: HIV-1 Env of isolate MGRM-F1-021 (HIV-1)
[16] = biological target: HIV-1 APV_17 Env (pseudovirus) (HIV-1)
[17] = biological target: HIV-1 Env of isolate MGRM-C-027 (pseudovirus) (HIV-1 isolate MGRM-C-027, subtype C)
[18] = biological target: HIV-1 Env of isolate MGRM-F1-023 (HIV-1)
[19] = biological target: HIV-1 Env of isolate MGRM-C-020 (pseudovirus) (HIV-1 isolate MGRM-C-020, subtype C)
[20] = biological target: HIV-1 Env of isolate MG RM-AG-012 (HIV-1)
[21] = biological target: HIV-1 Env of isolate MG RM-D-008 (subtype D) (HIV-1)
[22] = biological target: HIV-1 MGRM-Chronic-B-023 Env (pseudovirus) (HIV-1)
[23] = biological target: HIV-1 Env of isolate MGRM-F1-022 (HIV-1)
[24] = biological target: HIV-1 Env of isolate MGRM-C-017 (pseudovirus) (HIV-1 isolate MGRM-C-017, subtype C)
[25] = biological target: HIV-1 Env of isolate MGRM-C-008 (pseudovirus) (HIV-1 isolate MGRM-C-008, subtype C)
[26] = biological target: HIV-1 Env of isolate MGRM-F1-012 (subtype F) (HIV-1)
[27] = biological target: HIV-1 Env of isolate MGRM-C-001 (pseudovirus) (HIV-1 isolate MGRM-C-001, subtype C)
[28] = biological target: HIV-1 MGRM-Chronic-B-020 Env (pseudovirus) (HIV-1)
[29] = biological target: HIV-1 JR-CSF Env D474A (HIV-1 (isolate JR-CSF)) (UniProt P20871)
[30] = biological target: HIV-1 Env of isolate MGRM-G-028 (HIV-1)
[31] = biological target: HIV-1 Env of isolate APV-13 (pseudovirus) (HIV-1 isolate APV-13, subtype B)
[32] = biological target: HIV-1 Env of isolate MGRM-C-026 (HIV-1)
[33] = biological target: HIV-1 Env of isolate MGRM-AG-002 (CRF_AG), on pseudovirus (HIV-1)
[34] = biological target: HIV-1 Env of isolate 92TH021 (CRF01_AE), on pseudovirus (HIV-1)
[35] = biological target: HIV-1 Env of isolate MGRM-AG-001 (CRF_AG), on pseudovirus (HIV-1)
[36] = biological target: HIV-1 Env of isolate MGRM-A-009 (clade A), on pseudovirus (HIV-1)
[37] = biological target: HIV-1 Env of isolate MGRM-F1-016 (subtype F), on pseudovirus (HIV-1)
[38] = biological target: HIV-1 Env of isolate MGRM-AG-008 (CRF_AG), on pseudovirus (HIV-1)
[39] = biological target: HIV-1 Env of isolate MGRM-G-004 (subtype G) (HIV-1)

PGT-143 (4980_N08) (antibody), sequence (VH): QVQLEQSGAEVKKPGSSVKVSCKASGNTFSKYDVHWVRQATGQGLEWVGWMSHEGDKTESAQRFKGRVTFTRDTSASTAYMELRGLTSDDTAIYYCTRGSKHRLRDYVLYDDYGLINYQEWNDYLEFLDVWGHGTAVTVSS
PGT-143 (4980_N08) (antibody), sequence (VL): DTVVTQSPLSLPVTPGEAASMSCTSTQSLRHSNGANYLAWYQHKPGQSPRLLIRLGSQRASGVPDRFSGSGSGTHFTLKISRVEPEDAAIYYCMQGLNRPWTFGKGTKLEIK
5329_C19 (PGT-136) (antibody), sequence (VH): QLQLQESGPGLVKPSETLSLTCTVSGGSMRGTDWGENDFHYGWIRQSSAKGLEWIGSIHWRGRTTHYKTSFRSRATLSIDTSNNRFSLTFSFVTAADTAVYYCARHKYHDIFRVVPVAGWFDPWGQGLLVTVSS
5329_C19 (PGT-136) (antibody), sequence (VL): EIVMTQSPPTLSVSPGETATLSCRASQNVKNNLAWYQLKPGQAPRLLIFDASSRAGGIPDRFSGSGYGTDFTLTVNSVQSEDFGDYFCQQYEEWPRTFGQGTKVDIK
PGT-142 (4995_E20) (antibody), sequence (VH): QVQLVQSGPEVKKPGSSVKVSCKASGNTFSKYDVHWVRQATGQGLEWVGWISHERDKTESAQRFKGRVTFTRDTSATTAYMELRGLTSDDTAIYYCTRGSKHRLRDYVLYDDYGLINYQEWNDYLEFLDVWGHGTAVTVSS
PGT-142 (4995_E20) (antibody), sequence (VL): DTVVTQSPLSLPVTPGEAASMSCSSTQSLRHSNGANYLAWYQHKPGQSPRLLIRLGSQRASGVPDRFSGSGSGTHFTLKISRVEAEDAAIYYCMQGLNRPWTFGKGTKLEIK
PGT-141 (4964_G22; 4993_K13) (antibody), sequence (VH): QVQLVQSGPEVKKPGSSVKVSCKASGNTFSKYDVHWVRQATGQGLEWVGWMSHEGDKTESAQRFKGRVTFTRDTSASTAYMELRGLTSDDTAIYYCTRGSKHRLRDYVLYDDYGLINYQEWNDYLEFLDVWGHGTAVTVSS
PGT-144 (4970_K22) (antibody), sequence (VH): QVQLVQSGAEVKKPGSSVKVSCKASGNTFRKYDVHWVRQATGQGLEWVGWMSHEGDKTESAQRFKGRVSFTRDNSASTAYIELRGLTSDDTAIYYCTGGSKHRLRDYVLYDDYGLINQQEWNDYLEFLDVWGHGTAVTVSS
PGT-144 (4970_K22) (antibody), sequence (VL): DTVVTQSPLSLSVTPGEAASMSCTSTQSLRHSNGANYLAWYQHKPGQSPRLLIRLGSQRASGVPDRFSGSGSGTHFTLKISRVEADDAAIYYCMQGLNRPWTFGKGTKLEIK

| Substance | neutralization IC50 [4] [µg/mL] | IC50 (ug/ml), neutralizing activity [5] [µg/mL] | neutralization IC50 [6] [µg/mL] | neutralization IC50 [14] [µg/mL] | IC50 [15] [µg/mL] | IC50, pseudovirus neutralization [16] [µg/mL] | IC50 (µg/mL) neutralization [17] [µg/mL] | IC50 [18] [µg/mL] | IC50 (µg/mL) neutralization [19] [µg/mL] | neutralization IC50 [20] [µg/mL] | IC50 (µg/mL), pseudovirus neutralization [21] [µg/mL] | IC50, pseudovirus neutralization [22] [µg/mL] | IC50 [23] [µg/mL] | IC50 (µg/mL) neutralization [24] [µg/mL] | IC50 (µg/mL) neutralization [25] [µg/mL] | IC50 (µg/mL), pseudovirus neutralization [26] [µg/mL] | IC50 (µg/mL) neutralization [27] [µg/mL] | IC50, pseudovirus neutralization [28] [µg/mL] | IC50, pseudovirus neutralization [30] [µg/mL] | neutralization IC50 [39] [µg/mL] | further results |
| --- | --- | --- | --- | --- | --- | --- | --- | --- | --- | --- | --- | --- | --- | --- | --- | --- | --- | --- | --- | --- | --- |
| 1496_C09 (PG9) (TCN-109) (antibody) | 14.6 | 0.31 | 0.104 | 0.166 | – | – | – | – | – | – | – | – | – | – | – | – | – | – | – | – | neutralization IC50 [1]: 0.0869 µg/mL; IC50 (µg/ml), pseudovirus neutralization [2]: 0.18 µg/mL; IC50 (µg/ml), pseudovirus neutralization [3]: 0.03 µg/mL; IC50 neutralization [5]: 0.31 µg/mL; IC80, neutralization [5]: 1.95 µg/mL; IC90 (pseudovirus neutralization) [5]: 3.37 µg/mL; IC90, neutralization [5]: 5.54 µg/mL; IC50 (µg/ml), pseudovirus neutralization [7]: 4.39 µg/mL; IC50 [8]: 0.34 µg/mL; IC50 (µg/mL), pseudovirus neutralization [9]: 1.86 µg/mL; IC50 (µg/ml), pseudovirus neutralization [10]: 0.27 µg/mL; IC50 (ug/ml), neutralizing activity [11]: 0.113 µg/mL; IC50 neutralization [11]: 0.113 µg/mL; IC50 [12]: 0.22 µg/mL; IC50 (µg/ml), pseudovirus neutralization [13]: 0.04 µg/mL |
| 4838_L06 (PGT-121) (antibody) | – | – | – | – | 0.099 | 0.066 | 0.011 | 0.097 | > 50 | > 50 | > 50 | 0.005 | 0.104 | 0.009 | 0.012 | 1.91 | 17.5 | 0.004 | – | – | – |
| 4858_P08 (PGT-123) (antibody) | – | 0.846 | – | – | 0.307 | 0.114 | 0.02 | 0.053 | > 50 | > 50 | > 50 | 0.055 | 0.075 | 0.01 | 0.011 | 22.2 | 42.4 | 0.005 | 0.008 | – | IC50, pseudovirus neutralization [5]: 0.846 µg/mL; IC80, pseudovirus neutralization [5]: 3.29 µg/mL; IC90 (pseudovirus neutralization) [5]: 8.56 µg/mL; IC95, pseudovirus neutralization [5]: > 10 µg/mL; Fold IC50 increase relative to wild-type [29]: 1.1 fold; IC50 (ug/ml), neutralizing activity [11]: 0.0031 µg/mL; IC50, pseudovirus neutralization [11]: 3.1 ng/mL; IC80, pseudovirus neutralization [11]: 9.4 ng/mL; IC90 (pseudovirus neutralization) [11]: 0.0183 µg/mL; IC95, pseudovirus neutralization [11]: 0.0338 µg/mL |
| 4877_D15 (PGT-122) (antibody) | – | 1.46 | – | – | 2.3 | 0.25 | 0.039 | 0.154 | 14 | > 50 | > 50 | 0.01 | 0.277 | 0.015 | 0.028 | > 50 | 19.1 | 0.005 | 0.01 | – | IC50 (ug/ml), neutralizing activity [11]: 0.0089 µg/mL |
| 5123_A06 (PGT-125) (antibody) | – | 0.0124 | – | – | > 50 | 8.06 | > 50 | 0.12 | > 50 | > 50 | > 50 | > 50 | > 50 | 2.36 | > 50 | > 50 | > 50 | 0.087 | 0.012 | – | neutralization IC50 [5]: 0.0124 µg/mL; neutralization IC80 [5]: 0.0373 µg/mL; neutralization IC90 [5]: 0.071 µg/mL; neutralization IC95 [5]: 0.129 µg/mL; Fold IC50 increase relative to wild-type [29]: 1.4 fold; IC50 (ug/ml), neutralizing activity [11]: 0.0106 µg/mL; neutralization IC50 [11]: 0.0106 µg/mL; neutralization IC80 [11]: 0.035 µg/mL; neutralization IC90 [11]: 0.0705 µg/mL; neutralization IC95 [11]: 0.134 µg/mL |
| 5141_B17 (PGT-126) (antibody) | – | 0.0091 | – | – | > 50 | 0.353 | 15.6 | 0.009 | > 50 | > 50 | 43.1 | > 50 | > 50 | 0.17 | 2.12 | 0.3 | > 50 | 0.021 | 0.012 | – | Fold IC50 increase relative to wild-type [29]: 3.3 fold; IC50 (ug/ml), neutralizing activity [11]: 0.0076 µg/mL |
| 5145_B14 (PGT-127) (antibody) | – | – | – | – | > 50 | 10.4 | > 50 | 0.119 | > 50 | > 50 | > 50 | > 50 | > 50 | 3.4 | > 50 | > 50 | > 50 | 0.05 | 0.032 | – | Fold IC50 increase relative to wild-type [29]: 1.5 fold |
| 5329_C19 (PGT-136) (antibody) | – | – | – | – | – | – | – | – | – | – | – | – | – | – | – | – | – | – | > 50 | – | IC50 (µg/mL) neutralization [31]: > 50 µg/mL; neutralization IC50 [8]: > 50 µg/mL; IC50 [9]: 0.052 µg/mL; IC50 [32]: 6 ng/mL; IC50, single-round pseudovirus neutralization [33]: > 50 µg/mL; IC50, single-round pseudovirus neutralization [34]: > 50 µg/mL; IC50, single-round pseudovirus neutralization [35]: > 50 µg/mL; IC50, single-round pseudovirus neutralization [36]: > 50 µg/mL; IC50, pseudovirus neutralization [37]: > 50 µg/mL; IC50, single-round pseudovirus neutralization [38]: > 50 µg/mL |
| PGT-121 (antibody) | – | – | – | – | – | – | – | – | – | – | – | – | – | – | – | – | – | – | – | – | IC50 (µg/mL), pseudovirus neutralization [8]: 2.52 µg/mL; Primary Neutralization Index (B cell culture well 4838 L06) [8]: 1.4; Primary Neutralization Index (B cell culture well 4873 E03) [8]: 0.8; Primary Neutralization Index (B cell culture well 4838 L06) [32]: 996; Primary Neutralization Index (B cell culture well 4873 E03) [32]: 371 |
| PGT-122 (antibody) | – | – | – | – | – | – | – | – | – | – | – | – | – | – | – | – | – | – | – | – | IC50 (µg/mL), pseudovirus neutralization [8]: 2.04 µg/mL |
| PGT-141 (4964_G22; 4993_K13) (antibody) | 20.3 | – | 0.164 | 0.392 | – | – | – | – | – | – | – | – | – | – | – | – | – | – | – | > 50 | – |
| PGT-142 (4995_E20) (antibody) | 5.95 | – | 0.125 | 0.362 | – | – | – | – | – | – | – | – | – | – | – | – | – | – | – | > 50 | – |
| PGT-143 (4980_N08) (antibody) | 4.77 | – | 0.107 | 0.423 | – | – | – | – | – | – | – | – | – | – | – | – | – | – | – | > 50 | – |
| PGT-144 (4970_K22) (antibody) | > 50 | – | 9.97 | > 50 | – | – | – | – | – | – | – | – | – | – | – | – | – | – | – | > 50 | – |
| PGV04 (antibody) | 0.027 | – | 0.065 | > 50 | – | – | – | – | – | – | – | – | – | – | – | – | – | – | – | > 50 | IC50 [8]: 0.202 µg/mL; IC50 (µg/mL), pseudovirus neutralization [9]: 0.201 µg/mL |
| VRC01 (antibody) | 0.06 | – | 0.124 | 0.0371 | – | – | – | – | – | – | – | – | – | – | – | – | – | – | – | > 50 | IC50, pseudovirus neutralization [15]: 0.039 µg/mL; IC50, pseudovirus neutralization [18]: 0.392 µg/mL; IC50, pseudovirus neutralization [23]: 0.055 µg/mL |
